Results taken from PMC3605307.

How the values were obtained:
[1] = target: TRAIL-R2 ECD (Homo sapiens) (UniProt O14763); test: SPR; settings: cited from earlier work
[2] = target: TRAIL-R1 ECD (Homo sapiens) (UniProt O00220); test: SPR; settings: cited from earlier work
[3] = target: human TRAIL-R2-Fc M152A/R154A/K155A (human) (UniProt O14763); test: SPR
[4] = target: Human TRAIL-R2-Fc D148A (human) (UniProt O14763); test: SPR
[5] = target: human TRAIL-R2-Fc P150A (human) (UniProt O14763); test: SPR
[6] = target: Human TRAIL-R2-Fc V167A (human) (UniProt O14763); test: SPR
[7] = target: human TRAIL-R2-Fc E78A/D109A (human) (UniProt O14763); test: SPR
[8] = target: human TRAIL-R2-Fc K155A (human) (UniProt O14763); test: SPR
[9] = target: human TRAIL-R2-Fc R154A (human) (UniProt O14763); test: SPR
[10] = target: Human TRAIL-R2-Fc F112A (human) (UniProt O14763); test: SPR
[11] = target: human TRAIL-R2-Fc M152A (human) (UniProt O14763); test: SPR
[12] = target: human TRAIL-R2-Fc L110A/L114A (human) (UniProt O14763); test: SPR
[13] = target: Human TRAIL-R2-Fc D109A together with E78A (human) (UniProt O14763); test: SPR
[14] = target: Human TRAIL-R2-Fc fusion protein (wild type) (human) (UniProt O14763); test: SPR
[15] = target: Human CD155-Fc fusion protein (human) (UniProt P15151); test: SPR
[16] = target: TRAIL-R1-Fc fusion protein (UniProt O00220); test: SPR
[17] = target: Human TRAIL-R2-Fc double mutation L110A and L114A (human) (UniProt O14763); test: SPR
[18] = target: Recombinant UL141 ectodomain (soluble, released from the Fc fusion) (human cytomegalovirus (HCMV), FIX strain) (UniProt Q6RJQ3); test: SEC; size-exclusion elution profiles of the purified proteins against marker proteins

TRAIL-R1-Fc fusion protein, sequence (O00220 24-239): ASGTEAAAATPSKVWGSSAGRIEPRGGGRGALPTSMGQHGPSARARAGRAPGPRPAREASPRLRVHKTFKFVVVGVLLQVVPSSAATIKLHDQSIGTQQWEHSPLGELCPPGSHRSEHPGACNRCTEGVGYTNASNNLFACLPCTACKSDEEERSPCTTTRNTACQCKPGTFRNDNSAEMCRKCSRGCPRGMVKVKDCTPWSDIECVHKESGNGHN
Human CD155-Fc fusion protein (human), sequence (P15151 21-343): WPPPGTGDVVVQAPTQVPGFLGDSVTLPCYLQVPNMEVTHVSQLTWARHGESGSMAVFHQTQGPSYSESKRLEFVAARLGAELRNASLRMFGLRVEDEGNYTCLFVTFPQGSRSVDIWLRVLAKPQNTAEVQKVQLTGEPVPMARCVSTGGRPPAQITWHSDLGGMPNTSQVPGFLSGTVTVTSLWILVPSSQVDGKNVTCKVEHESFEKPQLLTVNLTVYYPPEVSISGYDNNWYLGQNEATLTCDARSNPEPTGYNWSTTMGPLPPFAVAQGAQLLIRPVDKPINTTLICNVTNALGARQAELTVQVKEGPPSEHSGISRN
TRAIL-R1 ECD (Homo sapiens), sequence (O00220 24-239): as the sequence (O00220 24-239) above

Substance: UL141 (from UniProt Q6RJQ3)
- Kd [1]: 6 nM
- Kd [2]: 2300 nM

Substance: HCMV UL141 ectodomain, soluble (released from the thrombin-cleavable Fc fusion) (from UniProt Q6RJQ3 37-278) (domain or fragment)
- Kd [3]: 7.39 nM
- koff [3]: 0.00027 s⁻¹
- kon [3]: 36500 M⁻¹ s⁻¹
- Kd [4]: 55.3 nM
- koff [4]: 0.0013 s⁻¹
- kon [4]: 23500 M⁻¹ s⁻¹
- Kd [5]: 8.32 nM
- koff [5]: 0.000391 s⁻¹
- kon [5]: 47000 M⁻¹ s⁻¹
- Kd [6]: 15.5 nM
- koff [6]: 0.00048 s⁻¹
- kon [6]: 31000 M⁻¹ s⁻¹
- Kd [7]: 60.4 nM
- koff [7]: 0.00151 s⁻¹
- kon [7]: 25000 M⁻¹ s⁻¹
- Kd [8]: 7.74 nM
- koff [8]: 0.00038 s⁻¹
- kon [8]: 49100 M⁻¹ s⁻¹
- Kd [9]: 6.26 nM
- koff [9]: 0.000243 s⁻¹
- kon [9]: 38800 M⁻¹ s⁻¹
- Kd [10]: 630 nM
- koff [10]: 0.00566 s⁻¹
- kon [10]: 8980 M⁻¹ s⁻¹
- Kd [11]: 7.49 nM
- koff [11]: 0.000382 s⁻¹
- kon [11]: 51000 M⁻¹ s⁻¹
- Kd [12]: 42.7 nM
- koff [12]: 0.00064 s⁻¹
- kon [12]: 15000 M⁻¹ s⁻¹

Substance: Recombinant UL141 ectodomain (soluble, released from the Fc fusion) (from UniProt Q6RJQ3 37-278) (domain or fragment)
- fold reduction of binding affinity against wild type [13]: 10 fold
- Kd [4]: 55 nM
- Kd [14]: 5.96 nM
- koff [14]: 7.21e-05 s⁻¹
- kon [14]: 12100 M⁻¹ s⁻¹
- Kd [6]: 15 nM
- K Dave [15]: 2 nM
- Kd [15]: 1.97 nM
- koff [15]: 0.000346 s⁻¹
- kon [15]: 176000 M⁻¹ s⁻¹
- KDeq [16]: 2.27 µM
- Kd [16]: 2330 nM
- koff [16]: 0.014 s⁻¹
- kon [16]: 6020 M⁻¹ s⁻¹
- Kd [17]: 43 nM
- Kd [10]: 630 nM
- stoichiometry N [18]: 2

Substance: Pre-formed UL141–TRAIL-R2 complex (from UniProt Q6RJQ3;O14763)
- K Dave [15]: 2 nM
- Kd [15]: 2.19 nM
- koff [15]: 0.000333 s⁻¹
- kon [15]: 152000 M⁻¹ s⁻¹
